From paper PMC8981238, “C-type cytochrome-initiated reduction of bacterial lytic polysaccharide monooxygenases” (Biochemical Journal, 2021)

Experiments:
[1] = target: CfAA10, LPMO from Cellulomonas fimi (Cellulomonas fimi)
[2] = target: CjAA10BΔCBM, cellulose active LPMO CjAA10B from Cellvibrio japonicus lacking its CBM (Cellvibrio japonicus)
[3] = substrate: O=C1O[C@H]([C@@H](O)CO)C(O)=C1O; assay: Amplex Red / horseradish peroxidase coupled H2O2 production, initial rates; assay type: biochemical, Cellvibrio japonicus; settings: reductant varied, no polysaccharide, O2 from air, 50 mM sodium phosphate pH 6.0, room temperature, 2 µM LPMO
Text: Amplex Red / horseradish peroxidase coupled H2O2 production, initial rates on CjAA10BΔCBM | concentration of CjX183, or ascorbate, was varied around calculated KM values

rate of oxidation of reduced CjX183 (10 µM, decay of A552, single exponential) with 0 to 50 µM CfAA10; rate rose linearly [1] [min⁻¹]	rate of oxidation of reduced CjX183 (10 µM, decay of A552, single exponential) with 0 to 50 µM CjAA10BΔCBM; rate rose linearly [2] [min⁻¹]	Binder	Km [3] [µM]
1.13	0.56	CjX183, c-type cytochrome X183 domain of Cbp2D from Cellvibrio japonicus (domain or fragment, heme c covalently linked via thioether linkages to Cys19 and Cys22 (numbering of the structure); disulfide bond between cysteines 74 and 78) GYLVGDATRGANLWNTQTCVACHGVDGERNASGTPALTPLNPNRDLYRHSRDTQDRALRDFISMWMPQGNEGSCTGQCAADIEAFIRTW	
		CjAA10BΔCBM (Cellvibrio japonicus Ueda107) (protein, AA10 catalytic part, C-terminal CBM deleted, from pET22-CjAA10B) HGFVDSPGARNYFCGAVTKPDHVMNGVARYPECAGAFANDFNGGYSYMSVLTHHQGRKVLGPVARNVCGFDSETWNGGKTPWDNAINWPVNNINSGTLTFSWDISNGPHFDDTSDFRYWITKPGFVYQVGRELTWADFEDQPFCDLAYNDDNPGAYPNVRADKPNTHFHTTCTVPARTGRHVIYAEWGREPPTYERFHGCIDVQIGGGSNSSVPVSSSSSSRSSSSSSLAPSSSSRSSSSSSSVSSSRSSSSSVVSSSSSSRPASSSSSSTGGS	5.8 ± 0.3
